B1: HDV Ribozyme (parent)
chain: GGCCGGCAUGGUCCCAGCCUCCUCGCUGGCGCCGGCUGGGCAACAUUCCGAGGGGACCGUCCCCUCGGUAAUGGCGAAUGGGACCCA

Variants of: B1
Assay: self-cleavage, relative activity (ratio to wild type); higher = more cleavage; co-transcriptional

Variant | self-cleavage
C7U C26G | 0.534
A71G G73A | 0.689
A56U A87C | 0.963
C24G U72G | 0
U79G | 0.742
U37C G68U | 1.05
A51C A77C | 0.266
G35U G68A | 0.351
G6U C14U | 0.682
C7G A87C | 0.211
G34A U69A | 0.166
G10A G28C | 0.0683
C7U G40A | 0.752
C19U G81A | 0
G35A C36U | 0.0817
G5C U20A | 0
G11C G31U | 0.0482
U27G C85U | 0.807
G28U C58G | 0.0852
C33A C64A | 0.339
G2A A83C | 0.0583
C7U C22A | 0.261
G34A A43C | 0.119
C58A A78G | 0.697

Variant | self-cleavage
G28U C36A | 0.0898
G52C G59A | 1.02
G6A C58G | 0.68
C7A C13A | 0.185
C30U G82C | 0.102
G73C A78C | 0.0773
G29A A70U | 0.0739
G29C C32A | 0.0791
C24U A43C | 0.0739
C7G U20C | 0
C58U G80U | 0.132
C33A C36G | 0.208
G17U C19G | 0
G2U C44G | 0
C24G U65G | 0.233
G25C G67C | 0.0415
C4G C64A | 0.219
C33G U46G | 0.208
U9C C58A | 1.11
C3A C14A | 0.313
G10U A56U | 0.893
C48A G59C | 1.15
G40C C48A | 0.424
U23A A43C | 0.312

Variant | self-cleavage
C44G A45G | 0.503
G31C A70C | 0.266
C19G U27C | 0.0875
A43U C75U | 0.128
C44U G81U | 0.212
U72G C85U | 0.644
C62G A87G | 0.716
U65A G82C | 0.614
G54A C62G | 1.06
C41G C66G | 0.831
C21A C44G | 0.0852
U27C C33G | 0.237
G31A A87G | 0.352
G25U G67U | 0.305
U47G U60G | 1.21
G10U G35C | 0.0723
C4G C62G | 0.123
G25A A71U | 0.0369
U47A A87C | 0.95
C18G C41A | 0.196
G53C G74C | 0.19
C24G G40A | 0.112
C19G A51G | 0.0361
C7U G31A | 0.876

Variant | self-cleavage
A43C A87C | 0.407
A51G C84U | 0.975
C26U G67U | 0.686
C84G C85G | 0.26
C15U U60C | 0.969
C14A U69G | 0.665
G76C C84A | 1.19
U20C G81A | 0
C13U C84G | 0.969
A8U G31C | 0.115
C19G C75G | 0.032
C7G C49A | 0.145
A42G C62A | 0.35
C19A C85U | 0.166
C61A A87C | 1.07
C7A G67U | 0.378
U20C U69A | 0
U20A G81U | 0.0346
A78G A87U | 0.862
G31U G82U | 0.0378
U12C A45U | 0.196
G28C A43U | 0.111
G54A A70C | 0.779
C62A A77G | 1.17

Variant | self-cleavage
C48U A70U | 1.07
G5A U20C | 0
G11A C15G | 0.138
C4G C86G | 0.249
C4A U12A | 0.0712
C4A G68A | 0.196
G17A A77U | 0.138
C49A G76A | 0.991
C84G | 0.688
A45U A77G | 0.609
C22A C85A | 0.378
A42C A70C | 0.0875
U20A U72A | 0.107
G54U A70U | 0.997
U69C U72G | 0.529
G2U C30G | 0.0601
C18U C32A | 0.166
U47G | 1.09
U12C U47A | 0.289
G25A G54U | 0.202
C57A C64A | 0.857
C26G G50C | 0.997
G35A C66G | 0.655
C44A G52A | 0.776

Variant | self-cleavage
C15G G25C | 0
C4G U79A | 0.0536
U69G A77C | 0.369
A45G G68C | 0.767
G11A G40C | 0.0623
G55U U65A | 0.891
U9G C57G | 1.19
A8U G38A | 0.141
C22G C58A | 0
C14A G40A | 0.706
C49G C85U | 0.912
G10A G35A | 0.281
G2U G59A | 0.128
G6U A51C | 0.656
G25U C36G | 0.108
U23G C57G | 0.831
G31U U60A | 0.379
A43C C62A | 0.415
C41A A51G | 0.705
U37C G55U | 1.13
G35C C41U | 0.0978
G53U C66U | 1.15
C66U G68A | 0.92
G11C C33A | 0.0346

Variant | self-cleavage
U9C C86U | 1.35
C36G G55U | 0.032
A77G A78G | 0.277
G17A G35A | 0.205
G25U C32A | 0.105
C32U G55U | 0.935
A8U A45C | 0.166
G74U G80C | 0.164
G52A C85A | 1.03
C15U A78U | 0.185
C61G U72C | 0.401
A56U G74A | 0.681
U9G C61G | 1.02
G25U C32U | 0.161
G31C C58G | 0.289
C7U C64G | 0.892
G50U G68A | 0.694
G6U C18U | 0.0369
A45G C61U | 0.888
G55C G81A | 0.496
C41A C64U | 0.831
A8G C26U | 1.16
C3A G11C | 0.0963
